Test results reported in article PMC13213242, “A novel ψ–χ fusion protein for unravelling the contributions of χ to DNA replication and repair” (Nucleic Acids Research, 2026).
Read-outs that look alike come from different tables or passages of the source.

Experiments:
[1] = biological target: beta clamp (Escherichia coli) (UniProt P0A988); settings: cited from earlier work
[2] = biological target: beta clamp (Escherichia coli) (UniProt P0A988); settings: cited from earlier work; remark: listed apart in the source
[3] = biological target: β-AF488_(2) (β sliding clamp R103C/I305C/C260S/C333S labelled with Alexa Fluor 488) (E. coli) (UniProt P0A988); experiment: other fluorescence titration; γ complex titrated into β-AF488_(2) (20 nM in the text, 10 nM in the legend) with 0.5 mM ATP; relative AF488 intensity at 520 nm, excitation 495 nm; reaction buffer 20 mM Tris–HCl pH 7.5, 50 mM NaCl, 8 mM MgCl2, 5 mM DTT, 0.5 mM EDTA, 40 μg/ml BSA, 4% glycerol; three independent experiments
[4] = biological target: T1, WT γ complex clamp loader (γ3δδ′ψχ) (E. coli, UniProt P06710-2 1-431; P28630 1-343; P28631 1-334; P28632 1-137; P28905 1-147); experiment: as above; settings: both partners purified
T1 construct: DNA polymerase III subunit γ, the truncated form of DnaX made by a translational frameshift, E. coli; DNA polymerase III subunit δ, E. coli; DNA polymerase III subunit δ′, E. coli; DNA polymerase III subunit ψ, E. coli; DNA polymerase III subunit χ, E. coli; also called WT clamp loader; source: expressed and purified as described previously [12, 25–28]; copies: 3 + + + +

In the case of “gamma complex clamp loader (from UniProt P06710)”, the Kd [1] is given as 3.3 nM and the Kd [2] is given as 3.2 nM.

Work on “γ complex containing ψ–GS8–χ (γ3δδ′ψ–GS8–χ) (from UniProt P06710-2 1-431; P28630 1-343; P28631 1-334; P28632 1-137)” yielded a Kd [3] of 4.2 nM.

“γ complex containing ψ–GS12–χ (γ3δδ′ψ–GS12–χ) (from UniProt P06710-2 1-431; P28630 1-343; P28631 1-334; P28632 1-137)” showed a Kd [3] of 2.1 nM.

B1: β-AF488_(2) (β sliding clamp R103C/I305C/C260S/C333S labelled with Alexa Fluor 488) (natural protein, E. coli, UniProt P0A988 1-366, looked up)
chain: MKFTVEREHLLKPLQQVSGPLGGRPTLPILGNLLLQVADGTLSLTGTDLEMEMVARVALVQPHEPGATTVPARKFFDICRGLPEGAEIAVQLEGERMLVRSGCSRFSLSTLPAADFPNLDDWQSEVEFTLPQATMKRLIEATQFSMAHQDVRYYLNGMLFETEGEELRTVATDGHRLAVCSMPIGQSLPSHSVIVPRKGVIELMRMLDGGDNPLRVQIGSNNIRAHVGDFIFTSKLVDGRFPDYRRVLPKNPDKHLEAGSDLLKQAFARAAILSNEKFRGVRLYVSENQLKITANNPEQEEAEECLDVTYSGAEMEIGFNVSYVLDVLNALKSENVRMMLTDSVSSVQIEDAASQSAAYVVMPMRL
modifications: Alexa Fluor 488 (maleimide) on the introduced surface Cys residues (R103C, I305C)
notes: DNA polymerase III β sliding clamp, E. coli; labelled at both sides of the dimer interface; also called β-AF88_(2); β-R103C/I305C/C260S/C333S; source: expressed and purified as described previously; labelled with AF488 maleimide, purified (BioGel P6-DG desalting, HiTrap Q)
B1 showed a Kd [4] of 2 nM.
